# Where “and” joins values, the source holds several entries; their conditions need not be identical. Identical values can stand only once.
# Biological target: T1, recombinant human Siglec-8 extracellular domain (ECD) (human, UniProt Q9NYZ4 17-363)
# T1 construct: extracellular domain; also called Siglec-8 ECD; full Siglec-8 ECD
# Assay: ELISA, coated Siglec-8 ECD
# Method: Binding of recombinant human Siglec-8 extracellular domain (ECD) by chimeric 2E2 and chimeric 2C4 IgG1K antibodies was measured by ELISA. […] Three-fold serial dilutions of a chimeric antibody (ch2E2 or ch2C4) or mouse antibody (m2E2 or m2C4) in 0.2% BSA/TBS (starting concentration was 5000 ng/mL) was added to each coated well. The plate was incubated for 2 hours at room temperature and the wells were subsequently washed before addition of goat-anti-human Fc peroxidase conjugate (1:10000 dilution) or anti-mouse Fc peroxidase conjugate (1:30000 dilution) diluted in 0.2% BSA/TBS solution. The plate was incubated for 45 minutes at room temperature, followed by washing and addition of 30 μL K-blue HRP substrate (SkyBio Ltd) to each well. After incubation at room temperature for 15 minutes, the reaction was stopped by adding 10 μL of Red Stop solution (SkyBio Ltd) to each well. The optical density or the experimental samples was read at 650 nm using the ELISA reader PHERAStar FS (BMG Labtech).
# The fully humanized antibody heavy and light chains were combined and compared with the chimeric antibody to determine if replacing the 4 Å and canonical framework residues and interface residues was sufficient to successfully humanize 2E2. Expi293 cells were co-transfected with combinations of different humanized light chain vectors in association with different humanized heavy chain vectors. Siglec-8 antigen was used to measure antibody binding by ELISA as described in Example 1.
# T1 sequence (Q9NYZ4 17-363): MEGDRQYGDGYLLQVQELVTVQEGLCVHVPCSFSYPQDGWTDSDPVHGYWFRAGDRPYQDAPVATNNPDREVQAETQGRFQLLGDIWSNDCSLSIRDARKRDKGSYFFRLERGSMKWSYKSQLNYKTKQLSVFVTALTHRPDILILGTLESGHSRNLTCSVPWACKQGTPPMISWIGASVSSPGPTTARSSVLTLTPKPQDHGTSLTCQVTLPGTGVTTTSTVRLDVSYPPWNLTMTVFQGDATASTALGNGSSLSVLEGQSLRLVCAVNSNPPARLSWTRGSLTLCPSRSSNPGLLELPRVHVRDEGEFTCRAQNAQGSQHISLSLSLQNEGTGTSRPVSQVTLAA
row,Binder,EC50
1,"HAKA (antibody, human IgG1, V domains shown, human IgG1/kappa) VH: EVQLVESGGGLVQPGGSLRLSCAASGFSLTIYGAHWVRQAPGKGLEWVSVIWAGGSTNYNSALMSRFTISKDNSKNTVYLQMNSLRAEDTAVYYCARDGSSPYYYSMEYWGQGTTVTVSS VL: EIVLTQSPATLSLSPGERATLSCSATSSVSYMHWFQQKPGQAPRLLIYSTSNLASGIPARFSGSGSGTDFTLTISSLEPEDFAVYYCQQRSSYPFTFGPGTKLDIK",85 pM and 58 pM
2,"HAKB (antibody, human IgG1, V domains shown, human IgG1/kappa) VH: EVQLVESGGGLVQPGGSLRLSCAASGFSLTIYGAHWVRQAPGKGLEWVSVIWAGGSTNYNSALMSRFTISKDNSKNTVYLQMNSLRAEDTAVYYCARDGSSPYYYSMEYWGQGTTVTVSS VL: EIILTQSPATLSLSPGERATLSCSATSSVSYMHWFQQKPGQAPRLWIYSTSNLASGVPARFSGSGSGTDYTLTISSLEPEDFAVYYCQQRSSYPFTFGPGTKLDIK",71 pM
3,"HBKG (antibody, human IgG1, V domains shown, human IgG1/kappa) VH: EVQLVESGGGLVQPGGSLRLSCAVSGFSLTIYGAHWVRQAPGKGLEWLGVIWAGGSTNYNSALMSRLSISKDNSKNTVYLQMNSLRAEDTAVYYCARDGSSPYYYSMEYWGQGTTVTVSS VL: EIVLTQSPATLSLSPGERATLSCSATSSVSYMHWYQQKPGQAPRLLIYSTSNLASGIPARFSGSGSGTDFTLTISSLEPEDFAVYYCQQRSSYPFTFGPGTKLDIK",212 pM
4,"HAKG (antibody, human IgG1, V domains shown, human IgG1/kappa) VH: EVQLVESGGGLVQPGGSLRLSCAASGFSLTIYGAHWVRQAPGKGLEWVSVIWAGGSTNYNSALMSRFTISKDNSKNTVYLQMNSLRAEDTAVYYCARDGSSPYYYSMEYWGQGTTVTVSS VL: EIVLTQSPATLSLSPGERATLSCSATSSVSYMHWYQQKPGQAPRLLIYSTSNLASGIPARFSGSGSGTDFTLTISSLEPEDFAVYYCQQRSSYPFTFGPGTKLDIK",189 pM
5,"HAKF (antibody, human IgG1, V domains shown, human IgG1/kappa) VH: EVQLVESGGGLVQPGGSLRLSCAASGFSLTIYGAHWVRQAPGKGLEWVSVIWAGGSTNYNSALMSRFTISKDNSKNTVYLQMNSLRAEDTAVYYCARDGSSPYYYSMEYWGQGTTVTVSS VL: EIVLTQSPATLSLSPGERATLSCSATSSVSYMHWFQQKPGQAPRLLIYSTSNLASGIPARFSGSGSGTDYTLTISSLEPEDFAVYYCQQRSSYPFTFGPGTKLDIK",78 pM and 62 pM
6,"HBKA (antibody, human IgG1, V domains shown, human IgG1/kappa) VH: EVQLVESGGGLVQPGGSLRLSCAVSGFSLTIYGAHWVRQAPGKGLEWLGVIWAGGSTNYNSALMSRLSISKDNSKNTVYLQMNSLRAEDTAVYYCARDGSSPYYYSMEYWGQGTTVTVSS VL: EIVLTQSPATLSLSPGERATLSCSATSSVSYMHWFQQKPGQAPRLLIYSTSNLASGIPARFSGSGSGTDFTLTISSLEPEDFAVYYCQQRSSYPFTFGPGTKLDIK",55 pM and 70 pM
7,"HAKFmut (antibody, human IgG1, V domains shown, human IgG1/kappa) VH: EVQLVESGGGLVQPGGSLRLSCAASGFSLTIYGAHWVRQAPGKGLEWVSVIWAGGSTNYNSALMSRFTISKDNSKNTVYLQMNSLRAEDTAVYYCARDGSSPYYYSMEYWGQGTTVTVSS VL: EIVLTQSPATLSLSPGERATLSCSATSSVSYMHWFQQKPGQAPRLLIYSTSNLASGIPARFSGSGSGTDYTLTISSLEPEDFAVYYCQQRSSYPYTFGPGTKLDIK",86 pM
8,"HBKF (antibody, human IgG1, V domains shown, human IgG1/kappa) VH: EVQLVESGGGLVQPGGSLRLSCAVSGFSLTIYGAHWVRQAPGKGLEWLGVIWAGGSTNYNSALMSRLSISKDNSKNTVYLQMNSLRAEDTAVYYCARDGSSPYYYSMEYWGQGTTVTVSS VL: EIVLTQSPATLSLSPGERATLSCSATSSVSYMHWFQQKPGQAPRLLIYSTSNLASGIPARFSGSGSGTDYTLTISSLEPEDFAVYYCQQRSSYPFTFGPGTKLDIK",66 pM and 51 pM
9,"mouse 2C4 antibody (antibody, mouse IgG1, kappa, murine IgG1/kappa; also called mo2C4; m2C4) heavy: QVQLKRASGPGLVAPSQSLSITCTVSGFSLTIYGAHWVRQPPGKGLEWLGVIWAGGSTNYNSALMSRLSISKDNSKSQVFLKINSLQTDDTALYYCARDGSSPYYYSMEYWGQGTSVTVSSAKTTPPSVYPLAPGSAAQTNSMVTLGCLVKGYFPEPVTVTWNSGSLSSGVHTFPAVLESDLYTLSSSVTVPSSPRPSETVTCNVAHPASSTKVDKKIVPRDCGCKPCICTVPEVSSVFIFPPKPKDVLTITLTPKVTCVVVDISKDDPEVQFSWFVDDVEVHTAQTQPREEQFNSTFRSVSELPIMHQDWLNGKEFKCRVNSAAFPAPIEKTISKTKGRPKAPQVYTIPPPKEQMAKDKVSLTCMITDFFPEDITVEWQWNGQPAENYKNTQPIMNTNGSYFVYSKLNVQKSNWEAGNTFTCSVLHEGLHNHHTEKSLSHSPG light: EIILTQSPAIMSASPGEKVSITCSATSSVSYMHWFQQKPGTSPKLWIYSTSNLASGVPVRFSGSGSGTSYSLTISRMEAEDAATYYCQQRSSYPFTFGSGTKLEIKADAAPTVSIFPPSSEQLTSGGASVVCFLNNFYPKDINVKWKIDGSERQNGVLNSWTDQDSKDSTYSMSSTLTLTKDEYERHNSYTCEATHKTSTSPIVKSFNRNEC",115 pM

# The remaining lines, values ahead:
row,EC50,Binder
1,48 pM,"HBKFmut (antibody, human IgG1, V domains shown, human IgG1/kappa) VH: EVQLVESGGGLVQPGGSLRLSCAVSGFSLTIYGAHWVRQAPGKGLEWLGVIWAGGSTNYNSALMSRLSISKDNSKNTVYLQMNSLRAEDTAVYYCARDGSSPYYYSMEYWGQGTTVTVSS VL: EIVLTQSPATLSLSPGERATLSCSATSSVSYMHWFQQKPGQAPRLLIYSTSNLASGIPARFSGSGSGTDYTLTISSLEPEDFAVYYCQQRSSYPYTFGPGTKLDIK"
2,56 pM,"HBKB (antibody, human IgG1, V domains shown, human IgG1/kappa) VH: EVQLVESGGGLVQPGGSLRLSCAVSGFSLTIYGAHWVRQAPGKGLEWLGVIWAGGSTNYNSALMSRLSISKDNSKNTVYLQMNSLRAEDTAVYYCARDGSSPYYYSMEYWGQGTTVTVSS VL: EIILTQSPATLSLSPGERATLSCSATSSVSYMHWFQQKPGQAPRLWIYSTSNLASGVPARFSGSGSGTDYTLTISSLEPEDFAVYYCQQRSSYPFTFGPGTKLDIK"
3,52 pM,"HAKE (antibody, human IgG1, V domains shown, human IgG1/kappa) VH: EVQLVESGGGLVQPGGSLRLSCAASGFSLTIYGAHWVRQAPGKGLEWVSVIWAGGSTNYNSALMSRFTISKDNSKNTVYLQMNSLRAEDTAVYYCARDGSSPYYYSMEYWGQGTTVTVSS VL: EIVLTQSPATLSLSPGERATLSCSATSSVSYMHWFQQKPGQAPRLLIYSTSNLASGVPARFSGSGSGTDFTLTISSLEPEDFAVYYCQQRSSYPFTFGPGTKLDIK"
4,58 pM,"HAKD (antibody, human IgG1, V domains shown, human IgG1/kappa) VH: EVQLVESGGGLVQPGGSLRLSCAASGFSLTIYGAHWVRQAPGKGLEWVSVIWAGGSTNYNSALMSRFTISKDNSKNTVYLQMNSLRAEDTAVYYCARDGSSPYYYSMEYWGQGTTVTVSS VL: EIVLTQSPATLSLSPGERATLSCSATSSVSYMHWFQQKPGQAPRLWIYSTSNLASGIPARFSGSGSGTDFTLTISSLEPEDFAVYYCQQRSSYPFTFGPGTKLDIK"
5,39 pM,"HBKD (antibody, human IgG1, V domains shown, human IgG1/kappa) VH: EVQLVESGGGLVQPGGSLRLSCAVSGFSLTIYGAHWVRQAPGKGLEWLGVIWAGGSTNYNSALMSRLSISKDNSKNTVYLQMNSLRAEDTAVYYCARDGSSPYYYSMEYWGQGTTVTVSS VL: EIVLTQSPATLSLSPGERATLSCSATSSVSYMHWFQQKPGQAPRLWIYSTSNLASGIPARFSGSGSGTDFTLTISSLEPEDFAVYYCQQRSSYPFTFGPGTKLDIK"
6,33 pM,"HBKC (antibody, human IgG1, V domains shown, human IgG1/kappa) VH: EVQLVESGGGLVQPGGSLRLSCAVSGFSLTIYGAHWVRQAPGKGLEWLGVIWAGGSTNYNSALMSRLSISKDNSKNTVYLQMNSLRAEDTAVYYCARDGSSPYYYSMEYWGQGTTVTVSS VL: EIILTQSPATLSLSPGERATLSCSATSSVSYMHWFQQKPGQAPRLLIYSTSNLASGIPARFSGSGSGTDFTLTISSLEPEDFAVYYCQQRSSYPFTFGPGTKLDIK"
7,66 pM,"HAKC (antibody, human IgG1, V domains shown, human IgG1/kappa) VH: EVQLVESGGGLVQPGGSLRLSCAASGFSLTIYGAHWVRQAPGKGLEWVSVIWAGGSTNYNSALMSRFTISKDNSKNTVYLQMNSLRAEDTAVYYCARDGSSPYYYSMEYWGQGTTVTVSS VL: EIILTQSPATLSLSPGERATLSCSATSSVSYMHWFQQKPGQAPRLLIYSTSNLASGIPARFSGSGSGTDFTLTISSLEPEDFAVYYCQQRSSYPFTFGPGTKLDIK"
8,56 pM,"HCKA (antibody, human IgG1, V domains shown, human IgG1/kappa) VH: EVQLVESGGGLVQPGGSLRLSCAVSGFSLTIYGAHWVRQAPGKGLEWVSVIWAGGSTNYNSALMSRFTISKDNSKNTVYLQMNSLRAEDTAVYYCARDGSSPYYYSMEYWGQGTTVTVSS VL: EIVLTQSPATLSLSPGERATLSCSATSSVSYMHWFQQKPGQAPRLLIYSTSNLASGIPARFSGSGSGTDFTLTISSLEPEDFAVYYCQQRSSYPFTFGPGTKLDIK"
9,61 pM,"HBKE (antibody, human IgG1, V domains shown, human IgG1/kappa) VH: EVQLVESGGGLVQPGGSLRLSCAVSGFSLTIYGAHWVRQAPGKGLEWLGVIWAGGSTNYNSALMSRLSISKDNSKNTVYLQMNSLRAEDTAVYYCARDGSSPYYYSMEYWGQGTTVTVSS VL: EIVLTQSPATLSLSPGERATLSCSATSSVSYMHWFQQKPGQAPRLLIYSTSNLASGVPARFSGSGSGTDFTLTISSLEPEDFAVYYCQQRSSYPFTFGPGTKLDIK"

# From patent publication US20200054723A1 (ALLAKOS, published 2020)
